Test results taken from article PMC8024259, “The Pah-R261Q mouse reveals oxidative stress associated with amyloid-like hepatic aggregation of mutant phenylalanine hydroxylase” (Nature Communications, 2021).
Changes are numbered by the printed parent chain. Names may count otherwise.

B1: Recombinant human WT-PAH (phenylalanine hydroxylase) (enzyme, UniProt P00439 1-452, looked up)
chain: MSTAVLENPGLGRKLSDFGQETSYIEDNCNQNGAISLIFSLKEEVGALAKVLRLFEENDVNLTHIESRPSRLKKDEYEFFTHLDKRSLPALTNIIKILRHDIGATVHELSRDKKKDTVPWFPRTIQELDRFANQILSYGAELDADHPGFKDPVYRARRKQFADIAYNYRHGQPIPRVEYMEEEKKTWGTVFKTLKSLYKTHACYEYNHIFPLLEKYCGFHEDNIPQLEDVSQFLQTCTGFRLRPVAGLLSSRDFLGGLAFRVFHCTQYIRHGSKPMYTPEPDICHELLGHVPLFSDRSFAQFSQEIGLASLGAPDEYIEKLATIYWFTVEFGLCKQGDSIKAYGAGLLSSFGELQYCLSEKPKLLPLELEKTAIQNYTVTEFQPLYYVAESFNDAKEKVRNFAATIPRPFSVRYDPYTQRIEVLDNTQQLKILADSINSEIGILCSALQKIK
notes: phenylalanine hydroxylase, human, expressed from pMAL as MBP-(pep)xa-PAH and cleaved with Factor Xa; source: E. coli TB1, purified (amylose resin, Factor Xa cleavage, SEC); not shown: MBP, N-terminal, cleaved
B2: Recombinant human p.R261Q-PAH (phenylalanine hydroxylase, p.Arg261Gln variant) (enzyme, UniProt P00439 1-452, looked up)
chain: B1 chain with R261Q
notes: phenylalanine hydroxylase, human, PKU patient variant p.R261Q, expressed from pMAL as MBP-(pep)xa-PAH and cleaved with Factor Xa; Variant that occurs in PKU patients (c.782G>A); also called p.PAH-R261Q; source: E. coli TB1, purified (amylose resin, Factor Xa cleavage, SEC); not shown: MBP, N-terminal, cleaved

Biological target: the molecule itself
Experiment: SEC; preparative isolation of the tetramer after Factor Xa cleavage; Superdex HiLoad 16/600 200, 20 mM Hepes pH 7, 200 mM NaCl

Protein | stoichiometry N
B1 | 4
B2 | 4
